± gives the uncertainty stated by the source.
Assay: protein stability index of a GFP-peptide fusion (yeast GPS) (PSI 1-4); higher = more stable; sorted into four equal gates, so the index is relative within each strain
Procedure, shortened: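 Tiled yeast protein peptides of 17 residues were each joined downstream of GFP, on plasmids that also express Cherry. The pooled library was maintained in yeast, and mid-log cultures in leucine-free medium were sorted into four equal gates on the GFP/Cherry ratio. Plasmids from every gate were amplified by PCR and sequenced on Illumina, with barcodes linking reads to strains. The protein stability index of a peptide is its gate-number-weighted read frequency summed over the gates.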

Sequence	protein stability index (doa10∆)	protein stability index (pdr5∆)	protein stability index (san1∆)	protein stability index (ubr1∆)
VRNVKGPVRENDILVLM [RPS28A]	3.24 ± 0.11	3.04 ± 0.1	3.5 ± 0.13	2.98 ± 0.074
LQPLEEGLIIDTDKLPI [SIN4]	2.73 ± 0.097	2.79 ± 0.074	2.75 ± 0.066	2.96 ± 0.061
KIQFILEQMELSILKGD [RPN5]		2.57 ± 0.23	2.35 ± 0.29	2.65 ± 0.19
QILQGICKNCSAILLSE [RPO31]	2.17 ± 0.071	2.23 ± 0.061	2.26 ± 0.13	2.43 ± 0.069
KKVSRRNARAARAAKIA [RPL13B]	3.05 ± 0.084	2.65 ± 0.11	2.63 ± 0.18	2.69 ± 0.045
TRSNPPFKRKMLLVDII [REC8]	1.9 ± 0.098	1.98 ± 0.087	2.14 ± 0.16	2.58 ± 0.061
VVGRTTRSNPPFKRKML [REC8]	2.59 ± 0.06	2.77 ± 0.059	2.71 ± 0.055	2.75 ± 0.054
LLIGCKLDQDDEIYIPI [CSI1]		3.12 ± 0.18	3.01 ± 0.084	3.09 ± 0.11
VNAITVAQQQVQRQIEQ [SNF5]		3.14 ± 0.2		3 ± 0.17
VQLPILKIIYTGLCSFD [YJL039C/NUP192]	1.41 ± 0.055	1.76 ± 0.043	1.26 ± 0.12	1.76 ± 0.058
RADTDLAMNDDDFLSKK [SNF2]	3.35 ± 0.094	3.59 ± 0.079	3.22 ± 0.076	3.42 ± 0.067
NTLIPESSLTISLYFND [ECM29]	1.92 ± 0.046	2.19 ± 0.052	1.99 ± 0.061	2.42 ± 0.043
GGNSTQNTSNMNAGGLF [YGR119C/NUP57]	3.26 ± 0.093	3.15 ± 0.06	3.04 ± 0.055	3.19 ± 0.081
TEYGRKYNVNISALTQT [PRP8]	2.07 ± 0.14	2.53 ± 0.093	2.94 ± 0.14	2.5 ± 0.047
MAYTSHLSSKTGLHFGR [QCR10]	3.08 ± 0.16	2.78 ± 0.087	2.69 ± 0.089	2.76 ± 0.066
TLAYDRGHRIRREFKQY [PRP8]	2.82 ± 0.08	2.63 ± 0.058	2.35 ± 0.098	2.3 ± 0.052
RLKVFEGIPPPYDKKKR [RPL16A]	2.99 ± 0.087	2.9 ± 0.094	3.05 ± 0.065	2.97 ± 0.08
PKGATYGKPTNQGVNEL [RPL15A]	3.02 ± 0.1	3.22 ± 0.085	3.2 ± 0.054	3.29 ± 0.044
MSKIQVAHSSRLANLID [SMB1]	1.47 ± 0.096	1.81 ± 0.15	1.09 ± 0.14	1.2 ± 0.15
INYAFSMDEEFKNMDCI [SIR3]	3.21 ± 0.051	3.22 ± 0.042	3.26 ± 0.033	3.321 ± 0.031
KPFGSAKSDETKQASSF [YLR335W/NUP2]		2.09 ± 0.12	1.92 ± 0.15	1.06 ± 0.13
SDSETNHKSKDNNNGDD [SKP1]	2.9 ± 0.054	3.17 ± 0.051	3.11 ± 0.04	3.15 ± 0.045
FLTGQFASNKKINDESS [YML103C/NUP188]	2.23 ± 0.05	2.23 ± 0.055	2.44 ± 0.067	2.4 ± 0.052
RKWMEEKADYERELISN [YIL149C/MLP2]	3.23 ± 0.045	3.35 ± 0.086	3.11 ± 0.04	3.31 ± 0.063
LDDNSTSLEKQINSIKK [YJL041W/NSP1]	2.74 ± 0.078	3.01 ± 0.058	2.98 ± 0.038	2.95 ± 0.045
SAESWGTGRAVARIPRV [RPL4A]	3.06 ± 0.19	3.51 ± 0.28	2.65 ± 0.21	2.75 ± 0.27

Sequence	protein stability index (doa10∆)	protein stability index (pdr5∆)	protein stability index (san1∆)	protein stability index (ubr1∆)
KIMQSISNKDVIFKIRD [SRB4]	3.34 ± 0.1	2.91 ± 0.15	3.22 ± 0.11	2.72 ± 0.12
GHRADVGGQFSKVQFDA [REC8]	3.25 ± 0.085	3.45 ± 0.11	3.28 ± 0.059	3.23 ± 0.056
SSVKCFGPIKVELPTKE [FAS1]	2.5 ± 0.069	1.98 ± 0.05	2.56 ± 0.057	1.97 ± 0.057
PLSTYNKNGNAVCSTAT [PGD1]	2.37 ± 0.096	2.63 ± 0.075	2.37 ± 0.078	2.72 ± 0.088
VDFSKYNTNFNLLLREL [SRP72]	2.99 ± 0.1	3.24 ± 0.12	2.97 ± 0.1	3.31 ± 0.056
GTSVISMKYDNGVIIAA [PRE4]	2.05 ± 0.19			
IRVTNSFALPFEEDEKN [RPN8]	2.67 ± 0.062	2.48 ± 0.046	3.05 ± 0.044	3.15 ± 0.043
VAPVSEIVNMVPSHVPQ [SIR2]	3.01 ± 0.09	2.96 ± 0.069	2.66 ± 0.06	2.87 ± 0.046
FAFWNLLVKFIKFFWNN [YLR018C/POM34]	2.13 ± 0.23	2 ± 0.076	1.7 ± 0.13	1.36 ± 0.24
VVEDKPLLSKKERLVRD [SMB1]	1.14 ± 0.063	1.2 ± 0.043	1.21 ± 0.13	1.49 ± 0.056
LSLGEAFKKIDAITVKD [COR1]	3.39 ± 0.29			3.71 ± 0.19
VGFWKDDGDDEDLLECL [MTR3]	2.67 ± 0.15	3.42 ± 0.19	3.5 ± 0.22	
PILAPSVKDYRPAEETE [RPS3]	3 ± 0.056	3.13 ± 0.051	3.174 ± 0.03	2.92 ± 0.04
TYVITKNGKIYLKHNSI [RET1]	2.72 ± 0.053	2.54 ± 0.046	2.45 ± 0.067	2.64 ± 0.028
STQELQTRAKLLDNEIR [RPT5]	3.2 ± 0.15	3.05 ± 0.085	3.03 ± 0.083	2.98 ± 0.044
WLVVPTIYNLQHHVTDA [YML031W/NDC1]	1.38 ± 0.03	1.62 ± 0.033	1.46 ± 0.05	1.37 ± 0.027
EQSNSRKRTRSEAEQID [YCG1]	3.35 ± 0.19	3.4 ± 0.26	2.81 ± 0.1	
VDVKPKSPKERELEERA [RPC25]		3.07 ± 0.17		3.31 ± 0.13
VPVRDGVTIEFSTNVKD [RPL9A]	1.35 ± 0.27	1.58 ± 0.26		
SNMLGSNEDVMMTGAEQ [RPB3]	3.47 ± 0.22	3.35 ± 0.12	3.26 ± 0.1	3.08 ± 0.089
EKPQFKDGETTDANGKT [RPO26]	3.36 ± 0.076	3.3 ± 0.047	3.36 ± 0.059	3.28 ± 0.05
RNAQAQREAAAEYAQLL [RPS6A]	2.88 ± 0.23	3.31 ± 0.2	2.85 ± 0.15	3.2 ± 0.12
VSEGTRAVTKYSSSTQA [HTB1]	2.99 ± 0.066	3.15 ± 0.1	3.16 ± 0.054	3.02 ± 0.071
TANANKPAFSFGATTND [YJL041W/NSP1]	3.01 ± 0.07	2.74 ± 0.051	2.91 ± 0.047	2.88 ± 0.039
AKRNLPHTTLVNECIAQ [CDC53]	2.37 ± 0.072	2.48 ± 0.059	2.65 ± 0.067	2.68 ± 0.04
SNTDETKGENYQLVKTL [FAS2]	2.94 ± 0.081	3.06 ± 0.081	2.81 ± 0.076	3.25 ± 0.084

Reference: the supplement of paper PMC9732359
